Measurements reported in patent US20250297004A1, “NECTIN-4 BINDING AGENTS” (INNATE PHARMA, priority 2022, published 2025).

T1: human Nectin-4 expressed on cells (human, UniProt Q96NY8 32-510)
T1 sequence: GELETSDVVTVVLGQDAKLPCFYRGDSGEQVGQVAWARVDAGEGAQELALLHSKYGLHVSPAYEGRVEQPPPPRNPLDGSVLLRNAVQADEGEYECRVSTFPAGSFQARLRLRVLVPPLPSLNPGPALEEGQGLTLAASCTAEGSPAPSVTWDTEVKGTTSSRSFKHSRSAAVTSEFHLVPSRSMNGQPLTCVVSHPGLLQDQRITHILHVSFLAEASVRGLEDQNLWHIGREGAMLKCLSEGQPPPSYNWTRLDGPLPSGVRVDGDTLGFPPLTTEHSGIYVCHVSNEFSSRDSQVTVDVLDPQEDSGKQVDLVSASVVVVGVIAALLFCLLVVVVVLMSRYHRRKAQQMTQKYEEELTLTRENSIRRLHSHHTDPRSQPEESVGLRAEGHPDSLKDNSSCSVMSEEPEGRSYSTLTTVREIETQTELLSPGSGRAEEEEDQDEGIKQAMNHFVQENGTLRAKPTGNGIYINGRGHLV

T2: human Nectin-4 (Homo sapiens, UniProt Q96NY8)
T2 sequence (Q96NY8 32-510): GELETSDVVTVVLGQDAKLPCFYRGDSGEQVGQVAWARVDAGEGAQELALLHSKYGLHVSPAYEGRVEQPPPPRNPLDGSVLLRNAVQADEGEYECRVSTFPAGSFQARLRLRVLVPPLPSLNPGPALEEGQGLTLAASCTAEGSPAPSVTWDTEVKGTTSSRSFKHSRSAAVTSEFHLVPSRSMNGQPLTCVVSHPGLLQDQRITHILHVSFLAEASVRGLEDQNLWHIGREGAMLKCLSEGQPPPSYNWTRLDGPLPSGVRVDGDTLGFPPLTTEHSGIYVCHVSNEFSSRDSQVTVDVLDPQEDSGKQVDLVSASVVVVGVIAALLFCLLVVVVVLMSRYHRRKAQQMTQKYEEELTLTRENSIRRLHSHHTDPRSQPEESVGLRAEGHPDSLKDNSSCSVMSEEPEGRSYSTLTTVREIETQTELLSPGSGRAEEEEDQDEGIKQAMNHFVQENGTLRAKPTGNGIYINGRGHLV

B1: H5L2 (antibody, human IgG1, V domains shown)
VH: QVQLVQSGAEVKKPGASVKVSCKASGYIFTSYWMHWVKQRPGQGLEWMGEIDPSDSYTNYNQKFKGRVTMTLDKSTSTTYMELSSLRSEDTAVYYCARGYGNYGDYWGQGTLVTVSS
VL: DVVMTQSPLSNPVTPGEPASISCRSSKSLLHSNGITYLYWYLQKPGQSPQLLIYQMSNLASGVPDRFSSSGSGTDFTLKISRVEAEDVGVYYCAQNLELPWTFGGGTKVEIK
notes: human IgG1 isotype
B2: H7L3 (antibody, human IgG1, V domains shown)
VH: QVQLVQSGAEVKKPGASVKVSCKASGYIFTSYWMHWVKQRPGQGLEWIGEIDPSDSYTNYNQKFKGRVTLTLDKSTSTTYMELSSLRSEDTAVYYCARGYGNYGDYWGQGTLVTVSS
VL: DVVMTQSALSNPVTPGEPASISCRSSKSLLHSNGITYLYWYLQKPGQSPQLLIYQMSNLASGVPDRFSSSGSGTDFTLKISRVEAEDVGVYYCAQNLELPWTFGGGTKVEIK
notes: human IgG1 isotype
B3: H6L3 (antibody, human IgG1, V domains shown)
VH: QVQLVQSGAEVKKPGASVKVSCKASGYIFTSYWMHWVKQRPGQGLEWIGEIDPSDSYTNYNQKFKGRVTMTLDKSTSTTYMELSSLRSEDTAVYYCARGYGNYGDYWGQGTLVTVSS
VL: DVVMTQSALSNPVTPGEPASISCRSSKSLLHSNGITYLYWYLQKPGQSPQLLIYQMSNLASGVPDRFSSSGSGTDFTLKISRVEAEDVGVYYCAQNLELPWTFGGGTKVEIK
notes: human IgG1 isotype
B4: H6L1 (antibody, human IgG1, V domains shown)
VH: QVQLVQSGAEVKKPGASVKVSCKASGYIFTSYWMHWVKQRPGQGLEWIGEIDPSDSYTNYNQKFKGRVTMTLDKSTSTTYMELSSLRSEDTAVYYCARGYGNYGDYWGQGTLVTVSS
VL: DVVMTQSPLSLPVTPGEPASISCRSSKSLLHSNGITYLYWYLQKPGQSPQLLIYQMSNLASGVPDRFSSSGSGTDFTLKISRVEAEDVGVYYCAQNLELPWTFGGGTKVEIK
notes: human IgG1 isotype
B5: H8L1 (antibody, human IgG1, V domains shown)
VH: QVQLVQSGAEVKKPGASVKVSCKASGYIFTSYWMHWVKQAPGQGLEWIGEIDPSDSYTNYNQKFKGRVTMTLDKSTSTTYMELSSLRSEDTAVYYCARGYGNYGDYWGQGTLVTVSS
VL: DVVMTQSPLSLPVTPGEPASISCRSSKSLLHSNGITYLYWYLQKPGQSPQLLIYQMSNLASGVPDRFSSSGSGTDFTLKISRVEAEDVGVYYCAQNLELPWTFGGGTKVEIK
notes: human IgG1 isotype
B6: H7L2 (antibody, human IgG1, V domains shown)
VH: QVQLVQSGAEVKKPGASVKVSCKASGYIFTSYWMHWVKQRPGQGLEWIGEIDPSDSYTNYNQKFKGRVTLTLDKSTSTTYMELSSLRSEDTAVYYCARGYGNYGDYWGQGTLVTVSS
VL: DVVMTQSPLSNPVTPGEPASISCRSSKSLLHSNGITYLYWYLQKPGQSPQLLIYQMSNLASGVPDRFSSSGSGTDFTLKISRVEAEDVGVYYCAQNLELPWTFGGGTKVEIK
notes: human IgG1 isotype
B7: H7L1 (antibody, human IgG1, V domains shown)
VH: QVQLVQSGAEVKKPGASVKVSCKASGYIFTSYWMHWVKQRPGQGLEWIGEIDPSDSYTNYNQKFKGRVTLTLDKSTSTTYMELSSLRSEDTAVYYCARGYGNYGDYWGQGTLVTVSS
VL: DVVMTQSPLSLPVTPGEPASISCRSSKSLLHSNGITYLYWYLQKPGQSPQLLIYQMSNLASGVPDRFSSSGSGTDFTLKISRVEAEDVGVYYCAQNLELPWTFGGGTKVEIK
notes: human IgG1 isotype
B8: H6L2 (antibody, human IgG1, V domains shown)
VH: QVQLVQSGAEVKKPGASVKVSCKASGYIFTSYWMHWVKQRPGQGLEWIGEIDPSDSYTNYNQKFKGRVTMTLDKSTSTTYMELSSLRSEDTAVYYCARGYGNYGDYWGQGTLVTVSS
VL: DVVMTQSPLSNPVTPGEPASISCRSSKSLLHSNGITYLYWYLQKPGQSPQLLIYQMSNLASGVPDRFSSSGSGTDFTLKISRVEAEDVGVYYCAQNLELPWTFGGGTKVEIK
notes: human IgG1 isotype

How the values were obtained:
[1] = tested on: SUM190 cells subcutaneously engrafted in CB17-SCID mice; assay: In vivo efficacy of ggfg-Dxd ADCs, Nectin-4 low/SUM190 mouse model of human breast cancer; conditions: single i.v. injection 3 mg/kg; each antibody conjugated to ggfg-Dxd, DAR=8; FIG. 4
Protocol: SUM190 cells were subcutaneously engrafted in CB17-SCID immunodeficient mice at a dose of 0.5 million cells in 100 μl of Matrigel with growth factor diluted at ½ in PBS. When tumors reached a volume between 195 and 250 mm3, mice were randomized into groups of 9 mice for intravenous treatment with a single injection of 3 mg/kg of camptothecin ADCs. Tumor growths were followed twice a week. Kaplan Meier survival curves were established by using GraphPad Prism V7 software according to the following criteria: When the tumor volume reached 1500 mm3, mice were euthanized and considered dead on the day of sacrifice (D).

[2] = biological target: human Nectin-4 (protein used in the SPR affinity measurements) (human) (UniProt Q96NY8); assay: SPR, human IgG1
[3] = biological target: T1, human Nectin-4 expressed on cells; assay: cell-based or functional assay
[4] = biological target: T1, human Nectin-4 expressed on cells; assay: cell-based or functional assay; remark: listed apart in the source
human Nectin-4 = biological target: T2, human Nectin-4; assay: Binding to human Nectin-4 by SPR; conditions: second set (Table 7); for ka: SPR association constant; for kd: SPR dissociation constant; for Kd: SPR, human IgG1 isotype antibodies
Protocol: (§1) The antibodies in Table 3 of Example 3 were cloned as human IgG1 isotype antibodies, produced and purified, then tested for binding to human Nectin-4. Affinity of the 16 humanized variants, as well as their association and dissociation constants were assessed by SPR analysis. Table 4 summarizes all the calculated constants (Affinity constant KD (nM), association constant ka (1/Ms) and dissociation constant kd (1/s)).
as §1, with “Table 6” for “Table 3”, “Example 5” for “Example 3”, “Table 7” for “Table 4”

[5] = biological target: T1, human Nectin-4 expressed on cells; assay: flow cytometry on SUM190 cells, MedFI at saturation
Protocol: The humanized antibodies in Table 3 of Example 3 and in Table 6 of Example 5 were cloned, produced and purified, then tested for binding to Nectin-4 expressing cells by flow cytometry. Binding of humanized variants in human IgG1 format was determined on the SUM190 cell line expressing high levels of Nectin-4.

| Molecule | control of tumor growth [1] | Kd [2] [nM] | koff [2] [s⁻¹] | kon [2] [M⁻¹ s⁻¹] | internalization efficiency on SUM190, normalized to chimeric parental antibody (Fab-ZAP, CTG), experiment 1 [3] | internalization efficiency on SUM190, normalized to chimeric parental antibody (Fab-ZAP, CTG), experiment 2 [3] | internalization efficiency on MDA-MB-468, normalized to chimeric parental antibody (Fab-ZAP, CTG), first column [4] | internalization efficiency on MDA-MB-468, normalized to chimeric parental antibody (Fab-ZAP, CTG), second column [4] | ka (human Nectin-4) [M⁻¹ s⁻¹] | kd (human Nectin-4) [s⁻¹] | Kd (human Nectin-4) [nM] | Max MedFi [5] [MedFI] |
| --- | --- | --- | --- | --- | --- | --- | --- | --- | --- | --- | --- | --- |
| enfortumab [reference compound] | no longer showed the ability to control tumor growth | – | – | – | – | – | – | – | – | – | – | – |
| B1 | – | 23.8 | 0.0053 | 220000 | 81.3 % of chimeric parental | 86 % of chimeric parental | 39.4 % of chimeric parental | 39.4 % of chimeric parental | 220000 | 0.0053 | 23.8 | 25300 |
| B2 | – | 49 | 0.0055 | 110000 | 88.5 % of chimeric parental | 61.3 % of chimeric parental | 51.8 % of chimeric parental | 51.8 % of chimeric parental | 110000 | 0.0055 | 49 | 25000 |
| B3 | – | 38.6 | 0.0051 | 130000 | 78.7 % of chimeric parental | 92.8 % of chimeric parental | 66.3 % of chimeric parental | 66.3 % of chimeric parental | 130000 | 0.0051 | 38.6 | 24800 |
| B4 | – | 32.1 | 0.0062 | 190000 | 71.3 % of chimeric parental | 54.5 % of chimeric parental | 61.6 % of chimeric parental | 61.6 % of chimeric parental | 190000 | 0.0062 | 32.1 | 18300 |
| B5 | – | 19.2 | 0.0048 | 250000 | 132 % of chimeric parental | 65.2 % of chimeric parental | 71.2 % of chimeric parental | 71.2 % of chimeric parental | 250000 | 0.0048 | 19.2 | 17300 |
| B6 | – | 39.5 | 0.0063 | 160000 | 89.6 % of chimeric parental | 74.8 % of chimeric parental | 58.7 % of chimeric parental | 58.7 % of chimeric parental | 160000 | 0.0063 | 39.5 | 23400 |
| B7 | – | 29.7 | 0.006 | 200000 | 129 % of chimeric parental | 73.1 % of chimeric parental | 79 % of chimeric parental | 79 % of chimeric parental | 200000 | 0.006 | 29.7 | 17800 |
| B8 | – | 41.3 | 0.0058 | 140000 | 69.7 % of chimeric parental | 63.5 % of chimeric parental | 58.5 % of chimeric parental | 58.5 % of chimeric parental | 140000 | 0.0058 | 41.3 | 24800 |
